Data reported in article PMC4618232 (Nature chemical biology, 2015).

B1: mouse XXYLT1 (Xylosideα1–3 Xylosyltransferase), soluble domain S43–D392 after limited proteolysis with trypsin (enzyme, UniProt Q3U4G3 93-391, looked up)
chain: VVPVDYHLLMMFTKAEHNAPLQAKARVALSSLLRLAKFEAHEVLNLHFVSEEASREVAKALLRELLPPAAGFKCKVIFHDVAVLTDKLFPVVEAMQKYFSAGSGTYYSDSIFFLSVAMHQIMPKEIPRIIQLDLDLKYKTNIRELFEEFDNFLPGAVIGIAREMQPVYRHTFWQFRHENPKTRVGDPPPEGLPGFNSGVMLLNLEAMRQSPLYSHLLEPSWVQQLADKYHFRGHLGDQDFFTMIGMEHPELFHVLDCTWNRQLCTWWRDHGYSDVFQAYFRCEGHVKIYHGNCNTPIPE

Experiments:
[1] = biological target: B1; test: SEC
[2] = biological target: B1; test: crystal structure
[3] = biological target: the molecule itself; test: crystal structure

Binder: VDGDQCESNPCLNGGSCKDDINSYECWCPFGFEGKNCEL (domain or fragment, Xyl-Glc disaccharide on Ser53) [human factor IX (hFA9) EGF repeat modified with the Xyl-Glc disaccharide]
- binding result [1]: binds

Binder: VDGDQCESNPCLNGGSCKDDINSYECWCPFGFEGKNCEL (domain or fragment, Xyl-Xyl-Glc trisaccharide on Ser53) [human factor IX (hFA9) EGF repeat with the Xyl-Xyl-Glc trisaccharide (product of XXYLT1)]
- binding result [2]: binds

Binder: B1
- stoichiometry N [3]: 2
